{"source": "paper PMC5547898", "target": "Myc-tagged metabotropic glutamate receptor 5 (Myc-mGluR5) (UniProt P41594)", "sequence (P41594 21-1212)": "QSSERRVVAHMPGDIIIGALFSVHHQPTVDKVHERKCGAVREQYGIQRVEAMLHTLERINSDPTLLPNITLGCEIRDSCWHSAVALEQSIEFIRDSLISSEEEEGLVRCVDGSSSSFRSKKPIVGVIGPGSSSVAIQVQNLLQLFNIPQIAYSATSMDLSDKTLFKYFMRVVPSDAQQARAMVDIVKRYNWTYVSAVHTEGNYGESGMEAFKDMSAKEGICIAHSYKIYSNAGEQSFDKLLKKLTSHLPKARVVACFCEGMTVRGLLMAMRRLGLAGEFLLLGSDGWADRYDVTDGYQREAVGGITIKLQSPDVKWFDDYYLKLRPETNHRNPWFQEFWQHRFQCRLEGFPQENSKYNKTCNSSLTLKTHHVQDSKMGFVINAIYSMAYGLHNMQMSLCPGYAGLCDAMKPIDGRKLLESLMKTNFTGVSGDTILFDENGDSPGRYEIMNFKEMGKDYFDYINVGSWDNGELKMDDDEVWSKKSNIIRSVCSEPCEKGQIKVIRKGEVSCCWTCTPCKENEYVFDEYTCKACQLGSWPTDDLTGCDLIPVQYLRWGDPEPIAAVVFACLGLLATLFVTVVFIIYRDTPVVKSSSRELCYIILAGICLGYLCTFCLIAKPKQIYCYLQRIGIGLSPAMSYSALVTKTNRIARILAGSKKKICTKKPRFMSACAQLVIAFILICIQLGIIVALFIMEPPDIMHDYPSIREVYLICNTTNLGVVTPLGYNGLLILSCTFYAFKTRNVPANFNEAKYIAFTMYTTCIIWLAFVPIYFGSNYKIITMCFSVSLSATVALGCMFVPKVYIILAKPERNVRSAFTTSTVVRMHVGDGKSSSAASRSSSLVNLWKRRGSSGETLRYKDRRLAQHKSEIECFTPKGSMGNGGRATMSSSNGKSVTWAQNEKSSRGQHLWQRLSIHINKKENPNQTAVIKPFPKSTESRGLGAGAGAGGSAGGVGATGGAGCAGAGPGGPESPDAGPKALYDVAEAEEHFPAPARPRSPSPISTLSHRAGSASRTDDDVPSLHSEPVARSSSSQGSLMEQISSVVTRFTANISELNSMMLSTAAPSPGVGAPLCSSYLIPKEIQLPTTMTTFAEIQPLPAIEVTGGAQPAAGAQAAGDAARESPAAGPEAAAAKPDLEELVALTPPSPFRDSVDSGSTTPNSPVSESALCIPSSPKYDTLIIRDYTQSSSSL", "assay": "co-IP", "data": [{"substance": "cellular prion protein (PrP^C) (from UniProt P04156 23-230) (natural protein)", "values": [{"measurement": "fold increase of the co-immunoprecipitate with Aβo against without Aβo", "result": "> 2", "unit": "fold"}]}]}
